Laboratory results reported in paper PMC7887213 (Nature Communications, 2021).

B1: Fab395 with elbow mutations in the heavy chain (crystallised form) (Fab, V domains shown)
VH: QEQLVESGGGVVQPGRSLRLSCAAASEFCFSCYGMHWVRQAPGKGLEWVAVIWHDGSNQHFADSVKGRFTISRDNSKNIMYLQMNSLRAEDTAVYYCASATRYDILTGAFDYWGQGTLVTVVS
VL: DIQMTQSPSTLSASVGDRVTITCRASQSISTWLAWYQQKPGKAPKLLIYKASSLESGVPSRFSGSGSGTEFTLTISSLQPDDFATYYCQQYSRYWTFGQGTKVEIK
notes: source: ExpiCHO cells, purified (HiTrap Protein G, SEC)
B2: Fab366 with elbow mutations in the heavy chain (crystallised form) (Fab, V domains shown)
VH: QVQLVQSGAEVKKPGASARVSCKASGYTLTDFYLHWVRQAPGQGLEWMGWLNPHSGGTNYAQKFLGRVSMTRDTSISTAYMELNKLISDDTAVYFCVRSDQEALRGAFDIWGQGTMVFVVS
VL: DIQMTQSPSSLSASVGDTVTITCRASQSINDYLNWYQQKPGKAPKLLIYATSSLHSGVPSRFSGSGFGTDFTLTISSLQPEDSATYLCQQSHSLWTFGQGTKVEVK
notes: as for B1
B3: Fab399 (Fab, V domains shown)
VH: EVQLVESGGGLVQPGRSLRLSCTTSGFTFGDYAMSWFRQAPGKGLEWVGFIRSKGFGGTAEYAAFVKGRFTISRDDSRSIAYLQMTSLKPEDTAVYYCSRVGVVIATAVYWGQGTLVTVSS
VL: DILMTQTPLSLSVTPGQPASISCKSSQSLLDNDGKTYLYWYLQKPGQSPQLLIYEVSNRFSGVPERFSGSGSGTDFTLKIRRVEAEDVGVYYCMQRIDLPWTFGQGTKVEIK
notes: also called mAb399; source: ExpiCHO cells, purified (HiTrap Protein G, SEC)

Columns and labels:
Conditions in all cases: both partners purified
[1] = target: T1, NPNA2 peptide (Ac-[residues removed]-NH2) (Plasmodium falciparum (synthetic CSP …); test: crystal structure; Fab at 10 mg/ml mixed with peptide at 1:5 molar ratio of Fab to peptide; sitting drop vapor diffusion
T1 construct: source: synthetic peptide, bought: Innopep Inc

NPNA3 peptide = target: T2, NPNA3 peptide (Plasmodium falciparum (synthetic CSP …)); test: as above
T2 construct: source: synthetic peptide, bought: Innopep Inc

[2] = target: T3, NPNA6 peptide (Ac-[residues removed]-NH2) (Plasmodium falciparum (synthetic CSP …); test: ITC; peptide in the syringe, Fab (~10 uM) in the cell; DPBS; 25 C; single-site binding model; triplicate; apparent affinity
T3 construct: source: synthetic peptide, bought: Innopep Inc

[3] = target: T4, NPNA4 peptide (Ac-[residues removed]-NH2) (Plasmodium falciparum (synthetic CSP …); test: as above
T4 construct: source: synthetic peptide, bought: Innopep Inc

Binder	binding result [1]	binding result (NPNA3 peptide)	Kd [2] [µM]	Kd [3] [µM]
B1	binds	–	–	–
B2	–	binds	–	–
B3	–	binds	0.094	5.92
